# Data: patent US20040185566A1, “Polypeptides toxic to nematodes and methods of use” (priority 2003, published 2004)
# Values joined by “and” are separate entries in the source; they are usually repeats but may differ in a detail not shown here. Equal values may be shown once.
# Experiments:
# R. similis = test: Assay for lytic activity against R. similis (microtiter plates); format: in vivo
# Procedure: The assays were performed in microtiter plates. Ten microliters of R. similissuspensions were placed in microtiter plate wells. Serially diluted SMP #1 (100U in 0.1 ml stock) was added to the wells. PBS was added to a series of wells containing R. similis as a control. The nematodes were stored at 20° C. and examined for lytic effects or death at 48 and 96 hours.
# casein = test: Proteolytic activity of SMP #1 (casein digestion), pH optimum and activity with detergents/solvents; format: biochemical
# Procedure: Proteolytic activity was determined by casein digestion (Kunitz 1947). Substrate consisting of 0.75 ml 1.0% (w/v) casein in 100 mM TRIS/HCL, 1 mM MgCl2 (pH 8) at 30° C. Protease samples (0.1 ml) were brought to 30° C., added to the substrate and incubated at 30° C. After 30 minutes, the reaction was quenched with 0.5ml 10% (w/v) trichloroacetic acid (TCA). After 15 minutes at 25° C., the quenched reaction mixture was centrifuged at 10 000 g for 10 minutes to pellet precipitated protein and the A280 of the supernatant was determined. One unit of proteolytic activity was defined as the amount of enzyme that produced an increase of absorbance at 280 nM of 0.1 under the conditions of the assay.
# Several compounds were tested as to characterize the novel protein. Effect of protease inhibitors (30-120 μ/ml antipain dihydrochloride, 1-4 μ/ml aprotinin, 20-80 μg/ml bestatin, 25-50 μg/ml chymostatin, 5-20 μg/ml E-64, 10-60 mM EDTA, 1-74 μg/ml leupeptin, 500-2000 μg/ml Pefabloc SC, 1-4 μ/ml pepstatin, 165-660 μlg/ml phosphoramidon and 100-400 μg/ml PMSF), SDS (0.1%-1%), Tween-20 (0.1%-1%), Triton X-100 (0.1%-1%), ethanol (1%-5%), and 2-mercaptoethanol (0.1%-1%) were determined by addition to the standard reaction mixture. Residual proteolytic activity was determined after incubation at 25° C. for 30 minutes.
# [1] = Native isoelectric focusing; format: physicochemical; details: polypeptide produced by S. marcescens NRRL B-23112
# Procedure: The isoelectric point (pI) of purified SMP#1 was determined using a vertical mini-gel system (Roberston et al. 1987) and 1.5 mm polyacrylamide gels consisting of 5% (w/v) 30:1 acrylamide/bisacrylamide, 10% (v/v) glycerol and 2% (w/v) pH 4-8 ampholytes. Electrode solutions were cooled to 4° C. prior to electrophoresis. The anode solution was 20 mM acetic acid and the cathode solution was 25 mM NaOH. Samples and protein standards (Sigma) were mixed with an equal volume of 50% (v/v) glycerol and 4%(w/v) ampholytes in the pH range of 4-8. Samples were prepared for isoelectric focusing by concentrating and desalting in a centriprep concentrator (Amicon) with a molecular mass exclusion limit of 10 000 Da. Electrophoresis was at 25° C. and 200 volts for 1.5 hours. The gels were fixed with 10% (w/v) trichloroacetic acid for 10 minutes with gentle agitation. Ampholytes were removed by shaking the gel for 2 hours in 1% (w/v) trichloroacetic acid. After rinsing with Milli-Q-water, the gels were stained with 0.25% (w/v) Coomassie blue R-250 in 45% (v/v) methanol and 10% (v/v) acetic acid for 10 minutes. The gels were destained in 45% (v/v) methanol and 10% (v/v) acetic acid until the background was clear.
# A. suum = test: Assay for lytic activity against live A. suum; details: for 12 hours Death / 12 hours Lysis / 24 hours Death / 24 hours Lysis: protein conc. 0.1 mg/ml
molecule,measurement,setting,value
"SMP #1: serratia metalloprotease isolated from S. marcescens NRRL B-23112, amino acid sequence SEQ ID NO:2; selective nematolytic activity (protein, listed as Serratia marcescens) MQSTKKAIEITESSLAAATTGYDAVDDLLHYHERGNGIQINGKDSFSNEQAGLFITRENQTWNGYKVFGQPVKLTFSFPDYKFSSTNVAGDTGLSKFSAEQQQQAKLSLQSWADVANITFTEVAAGQKANITFGNYSQDRPGHYDYGTQAYAFLPNTIWQGQDLGGQTWYNVNQSNVKHPATEDYGRQTFTHEIGHALGLSHPGDYNAGEGNPTYNDVTYAEDTRQFSLMSYWSETNTGGDNGGHYAAAPLLDDIAAIQHLYGANLSTRTGDTVYGFNSNTGRDFLSTTSNSQKVIFAAWDAGGNDTFDFSGYTANQRINLNEKSFSDVGGLKGNVSIAAGVTIENAIGGSGNDVIVGNAANNVLKGGAGNDVLFGGGGADELWGGAGKDIFVFSAASDSAPGASDWIRDFQKGIDKIDLSFFNKEAQSSDFIHFVDHFSGTAGEALLSYNASSNVTDLSVNIGGHQAPDFLVKIVGQVDVATDFIVHSNGTPGAVSAGRDA",Dead (nematodes counted),"R. similis; 10 U/well, 10 wells, 20° C.",298 and 300
same,% mortality,"R. similis; 10 U/well, 10 wells, 20° C., significant difference (p < 0.05) between treatments",99% and 100%
same,lysis / mortality of the nematode on contact,R. similis; R. similis,lyses the nematode
same,time until cuticle and body wall are lysed and internal viscera expelled,R. similis; R. similis,≤ 30 h
same,proteolytic activity retained in the presence of additive,casein; 2-mercaptoethanol (0.5% v/v),retains full activity
same,proteolytic activity retained in the presence of additive,casein; SDS (1% w/v),retains full activity
same,proteolytic activity retained in the presence of additive,casein; Triton X-100 (1% w/v),retains full activity
same,proteolytic activity retained in the presence of additive,casein; Tween-20 (1% w/v),retains full activity
same,proteolytic activity retained in the presence of additive,casein; ethanol (5% v/v),retains full activity
same,Optimum pH,casein; polypeptide produced by S. marcescens NRRL B-23112,10
same,Isoelectric point,[1],6.1
same,lysis / mortality of the nematode on contact,A. suum; A. suum,lyses the nematode
same,time until cuticle and body wall are lysed and internal viscera expelled,A. suum; A. suum,≤ 30 h
same,12 hours Death,A. suum; 10 mM 2-mercaptoethanol,(+)
same,12 hours Lysis,A. suum; 10 mM 2-mercaptoethanol,(+++)
same,24 hours Death,A. suum; 10 mM 2-mercaptoethanol,(+)
same,24 hours Lysis,A. suum; 10 mM 2-mercaptoethanol,(+++)
"papain (protein, UniProt P00784 134-345, looked up) Papain: IPEYVDWRQKGAVTPVKNQGSCGSCWAFSAVVTIEGIIKIRTGNLNEYSEQELLDCDRRSYGCNGGYPWSALQLVAQYGIHYRNTYPYEGVQRYCRSREKGPYAAKTDGVRQVQPYNEGALLYSIANQPVSVVLEAAGKDFQLYRGGIFVGPCGNKVDHAVAAVGYGPNYILIKNSWGTGWGENGYIRIKRGTGNSYGVCGLYTSSFYPVKN",12 hours Death,A. suum; 2-mercaptoethanol 0,(+)
same,12 hours Lysis,A. suum; 2-mercaptoethanol 0,(+++)
same,24 hours Death,A. suum; 2-mercaptoethanol 0,(+)
same,24 hours Lysis,A. suum; 2-mercaptoethanol 0,(+++)
